# T1: ParB CTD (Bacillus subtilis, UniProt P26497 217-282)
# T1 sequence: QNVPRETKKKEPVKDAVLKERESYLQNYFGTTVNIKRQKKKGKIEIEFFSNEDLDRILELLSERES
# Target: T1, ParB CTD
# Experiment: NMR
row,Binder,binding result
1,GCGTACATCATTCCCTGATGTACGC (structured_DNA) [10-bp hairpin DNA],binds

# Target: the molecule itself
# Experiment: SEC-MALS
Binder,stoichiometry N,binding result
"BsParB(A232G), full length (natural protein) MAKGLGKGINALFNQVDLSEETVEEIKIADLRPNPYQPRKHFDDEALAELKESVLQHGILQPLIVRKSLKGYDIVAGERRFRAAKLAGLDTVPAIVRELSEALMREIALLENLQREDLSPLEEAQAYDSLLKHLDLTQEQLAKRLGKSRPHIANHLRLLTLPENIQQLIAEGTLSMGHGRTLLGLKNKNKLEPLVQKVIAEQLNVRQLEQLIQQLNQNVPRETKKKEPVKDGVLKERESYLQNYFGTTVNIKRQKKKGKIEIEFFSNEDLDRILELLSERES",2,
"BsParB(K257A), full length (natural protein) MAKGLGKGINALFNQVDLSEETVEEIKIADLRPNPYQPRKHFDDEALAELKESVLQHGILQPLIVRKSLKGYDIVAGERRFRAAKLAGLDTVPAIVRELSEALMREIALLENLQREDLSPLEEAQAYDSLLKHLDLTQEQLAKRLGKSRPHIANHLRLLTLPENIQQLIAEGTLSMGHGRTLLGLKNKNKLEPLVQKVIAEQLNVRQLEQLIQQLNQNVPRETKKKEPVKDAVLKERESYLQNYFGTTVNIKRQKKAGKIEIEFFSNEDLDRILELLSERES",2,
"BsParB(K252A), full length (natural protein) MAKGLGKGINALFNQVDLSEETVEEIKIADLRPNPYQPRKHFDDEALAELKESVLQHGILQPLIVRKSLKGYDIVAGERRFRAAKLAGLDTVPAIVRELSEALMREIALLENLQREDLSPLEEAQAYDSLLKHLDLTQEQLAKRLGKSRPHIANHLRLLTLPENIQQLIAEGTLSMGHGRTLLGLKNKNKLEPLVQKVIAEQLNVRQLEQLIQQLNQNVPRETKKKEPVKDAVLKERESYLQNYFGTTVNIARQKKKGKIEIEFFSNEDLDRILELLSERES",2,
"BsParB(K256A), full length (natural protein) MAKGLGKGINALFNQVDLSEETVEEIKIADLRPNPYQPRKHFDDEALAELKESVLQHGILQPLIVRKSLKGYDIVAGERRFRAAKLAGLDTVPAIVRELSEALMREIALLENLQREDLSPLEEAQAYDSLLKHLDLTQEQLAKRLGKSRPHIANHLRLLTLPENIQQLIAEGTLSMGHGRTLLGLKNKNKLEPLVQKVIAEQLNVRQLEQLIQQLNQNVPRETKKKEPVKDAVLKERESYLQNYFGTTVNIKRQKAKGKIEIEFFSNEDLDRILELLSERES",2,
"BsParB(K255A), full length (natural protein) MAKGLGKGINALFNQVDLSEETVEEIKIADLRPNPYQPRKHFDDEALAELKESVLQHGILQPLIVRKSLKGYDIVAGERRFRAAKLAGLDTVPAIVRELSEALMREIALLENLQREDLSPLEEAQAYDSLLKHLDLTQEQLAKRLGKSRPHIANHLRLLTLPENIQQLIAEGTLSMGHGRTLLGLKNKNKLEPLVQKVIAEQLNVRQLEQLIQQLNQNVPRETKKKEPVKDAVLKERESYLQNYFGTTVNIKRQAKKGKIEIEFFSNEDLDRILELLSERES",2,
"BsParB(K259A), full length (natural protein) MAKGLGKGINALFNQVDLSEETVEEIKIADLRPNPYQPRKHFDDEALAELKESVLQHGILQPLIVRKSLKGYDIVAGERRFRAAKLAGLDTVPAIVRELSEALMREIALLENLQREDLSPLEEAQAYDSLLKHLDLTQEQLAKRLGKSRPHIANHLRLLTLPENIQQLIAEGTLSMGHGRTLLGLKNKNKLEPLVQKVIAEQLNVRQLEQLIQQLNQNVPRETKKKEPVKDAVLKERESYLQNYFGTTVNIKRQKKKGAIEIEFFSNEDLDRILELLSERES",2,
BsParB(K252A-K259A) (natural protein) MAKGLGKGINALFNQVDLSEETVEEIKIADLRPNPYQPRKHFDDEALAELKESVLQHGILQPLIVRKSLKGYDIVAGERRFRAAKLAGLDTVPAIVRELSEALMREIALLENLQREDLSPLEEAQAYDSLLKHLDLTQEQLAKRLGKSRPHIANHLRLLTLPENIQQLIAEGTLSMGHGRTLLGLKNKNKLEPLVQKVIAEQLNVRQLEQLIQQLNQNVPRETKKKEPVKDAVLKERESYLQNYFGTTVNIARQKKKGAIEIEFFSNEDLDRILELLSERES,,binds
BsParB(K252A-K255A-K259A) (natural protein) MAKGLGKGINALFNQVDLSEETVEEIKIADLRPNPYQPRKHFDDEALAELKESVLQHGILQPLIVRKSLKGYDIVAGERRFRAAKLAGLDTVPAIVRELSEALMREIALLENLQREDLSPLEEAQAYDSLLKHLDLTQEQLAKRLGKSRPHIANHLRLLTLPENIQQLIAEGTLSMGHGRTLLGLKNKNKLEPLVQKVIAEQLNVRQLEQLIQQLNQNVPRETKKKEPVKDAVLKERESYLQNYFGTTVNIARQAKKGAIEIEFFSNEDLDRILELLSERES,,binds

# From PMC12259117 (bioRxiv, 2025)
